Measurements taken from patent publication US20240317834A1, “COMPOSITIONS AND METHODS FOR NEUROLOGICAL DISEASES” (CODA BIOTHERAPEUTICS, INC., priority 2020, published 2024).

Tested on: Lenti-X 293T cells
Test: YFP fluorescence quenching anion reporter plate reader assay of engineered receptors stimulated with acetylcholine or a non-native ligand
Assay type: cell-based
Source text: To screen these mutant LGICs for those having novel response profiles to ligands, an anion reporter assay was developed to assess the function of the LGICs in a high throughput format. In this assay, cells expressing a YFP reporter whose fluorescence is quenched in the presence of anion are transfected with DNA encoding the channel of interest. Upon exposure to ligand, channels that are activated will flux anion, resulting in a dose-dependent quench of the YFP that can be detected on a plate reader. The greater the quench signal (i.e., the more positive the value), the higher the ligand activity on the receptor is.
Lenti-X 293T cells (LX293T, Clontech) were maintained in DMEM containing 10% FBS and 1% penicillin/streptomycin (Invitrogen). […] Two days before assay, cells were split at a density of 20,000 cells/well in a 96-well tissue culture plate coated with poly-d lysine (Thermo Scientific). The next day, the cells were transiently transfected with 0.1 μg of DNA per well using standard Fugene protocol (Promega). On the day of assay, cells were washed 2 times in 1× extracellular solution (1×ECS: 140 mM NaCl, 5 mM KCl, 1 mM MgCl2, 2 mM CaCl2), 10 mM HEPES, 10 mM glucose, pH 7.2, mOsms 300). After the last wash, 100 μL of 1×ECS was added to the wells and the plate was incubated at 37° C. for 30 min. While incubating the plate, the drugs were diluted to a 2× concentration in 1×ECS-NaI (same components as 1×ECS except the 140 mM NaCl was replaced by 140 mM NaI). The plates were then read on a Flexstation3 (Molecular Devices). Each well, 8 wells at a time, of the plate is read for 2 min using a Flexstation3 (Molecular Devices) as follows: 1) a baseline YFP fluorescence is read for 17 sec, 2) 100 μL of ligand is added, and 3) the changes in YFP fluorescence are then measured every 1.3 sec for 1 minute and 43 seconds. The percent quench is calculated from the average fluorescence of the last 10 seconds of the read divided by the baseline average of the first 15 seconds prior to the ligand addition.
FIGS. 1A-1J provide heat maps of the percent quench of YFP fluorescence following stimulation by various doses of either acetylcholine or the non-native ligand as indicated in the Figures. CODA71 (SEQ ID NO: 33) was used as a control, and CODA75 (SEQ ID NO: 29, a non-responding chimeric engineered receptor) was used as the negative control. Quenching of the fluorescence signal, as indicated by blue shaded cells, indicate the level of engineered receptor activation by the non-native ligand at that concentration.

B1: CODA333: engineered chimeric LGIC receptor, L131S in SEQ ID NO: 33 (protein)
chain: MRCSPGGVWLALAASLLHVSLQGEFQRKLYKELVKNYNPLERPVANDSQPLTVYFSLSLLQIMDVDEKNQVLTTNIWLQMSWTDHYLQWNVSEYPGVKTVRFPDGQIWKPDILLYNSADERFDATFHTNVSVNSSGHCQYLPPGIFKSSCPMDLKNFPMDVQTCKLKFGSWSYGGWSLDLQMQEADISGYIPNGEWDLVGIPGKRSERFYECCKEPYPDVTFTVTMRRRMGYYLIQMYIPSLLIVILSWISFWINMDAAPARVGLGITTVLTMTTQSSGSRASLPKVSYVKAIDIWMAVCLLFVFSALLEYAAVNFVSRQHKELLRFRRKRRHHKSPMLNLFQEDEAGEGRFNFSAYGMGPACLQAKDGISVKGANNSNTTNPPPAPSKSPEEMRKLFIQRAKKIDKISRIGFPMAFLIFNMFYWIIYKIVRREDVHNQ
modifications: synthetic sequence of chimeric LGIC
YFP fluorescence quenching using CNL001 (1 nM CNL001, first column): 76.165% | YFP fluorescence quenching using CNL001 (1 nM CNL001, second column): 78.463% | YFP fluorescence quenching using TC-5619/Bradanicline (1 nM brd): −0.85% | YFP fluorescence quenching using TC-5619/Bradanicline (3 nM brd): −2.05% | YFP fluorescence quenching using Varenicline (3 nM var, first column): −4.782 | YFP fluorescence quenching using Varenicline (3 nM var, second column): 1.048 | YFP fluorescence quenching using CNL001 (10 nM CNL001, first column): 79.349% | YFP fluorescence quenching using CNL001 (10 nM CNL001, second column): 78.238% | YFP fluorescence quenching using TC-5619/Bradanicline (10 nM brd): −2.8% | YFP fluorescence quenching using TC-5619/Bradanicline (30 nM brd): −2.07% | YFP fluorescence quenching using Facinicline (30 nM fac): 6.27 | YFP fluorescence quenching using Varenicline (30 nM var, first column): 2.084 | YFP fluorescence quenching using Varenicline (30 nM var, second column): 5.022 | YFP fluorescence quenching using CNL001 (50 nM CNL001, first column): 80.221% | YFP fluorescence quenching using CNL001 (50 nM CNL001, second column): 81.789% | YFP fluorescence quenching using ABT-126 (50 nM abt): −20.99% | YFP fluorescence quenching using CNL001 (100 nM CNL001, first column): 81.855% | YFP fluorescence quenching using CNL001 (100 nM CNL001, second column): 80.766% | YFP fluorescence quenching using CNL002 (100 nM CNL002): −15.44% | YFP fluorescence quenching using ABT-126 (100 nM abt): −16.21% | YFP fluorescence quenching using AZD-0328 (100 nM azd0328): 38.49% | YFP fluorescence quenching using TC-5619/Bradanicline (100 nM brd): 30.34% | YFP fluorescence quenching using ABT-126 (300 nM abt): −13.34% | YFP fluorescence quenching using AZD-0328 (300 nM azd0328): 67.13% | YFP fluorescence quenching using TC-5619/Bradanicline (300 nM brd): 50.56% | YFP fluorescence quenching using Facinicline (300 nM fac): 69.8 | YFP fluorescence quenching using Varenicline (300 nM var, first column): 12.162 | YFP fluorescence quenching using Varenicline (300 nM var, second column): 12.979 | YFP fluorescence quenching using Varenicline (500 nM var, first column): 29.238 | YFP fluorescence quenching using Varenicline (500 nM var, second column): 25.614 | YFP fluorescence quenching using CNL001 (1 uM CNL001, first column): 81.707% | YFP fluorescence quenching using CNL001 (1 uM CNL001, second column): 82.665% | YFP fluorescence quenching using CNL002 (1 uM CNL002): 15.21% | YFP fluorescence quenching using ABT-126 (1 uM abt): 4.96% | YFP fluorescence quenching using TC-5619/Bradanicline (1 uM brd): 72.42% | YFP fluorescence quenching using TC-6987 (1 uM tc6987): −3.87 | YFP fluorescence quenching using Varenicline (1 uM var, first column): 43.863 | YFP fluorescence quenching using Varenicline (1 uM var, second column): 39.346 | YFP fluorescence quenching using TC-6987 (3 uM tc6987): −20.2 | YFP fluorescence quenching using TC-6987 (5 uM tc6987): −15.25 | YFP fluorescence quenching using Facinicline (10 uM fac): 80.07 | YFP fluorescence quenching using TC-6987 (10 uM tc6987): 4.92 | YFP fluorescence quenching using AZD-0328 (30 uM azd0328): 80.61% | YFP fluorescence quenching using Facinicline (30 uM fac): 81.35 | YFP fluorescence quenching using TC-6987 (30 uM tc6987): 14.75 | YFP fluorescence quenching using TC-6987 (50 uM tc6987): 21.33 | YFP fluorescence quenching using TC-6987 (100 uM tc6987): 29.7 | YFP fluorescence quenching using TC-6987 (300 uM tc6987): 20.79 | YFP fluorescence quenching using TC-6987 (500 uM tc6987): 44.37 | percent quench of YFP fluorescence, 30 nM TC-6683 (TC-6683 30 nM): −23.88% | percent quench of YFP fluorescence, 300 nM TC-6683 (TC-6683 300 nM): −21.46% | percent quench of YFP fluorescence, 3 uM TC-6683 (TC-6683 3 uM): −21.07% | percent quench of YFP fluorescence, 30 uM TC-6683 (TC-6683 30 uM): −16.15% | percent quench of YFP fluorescence, 100 uM TC-6683 (TC-6683 100 uM): −18.96% | percent quench of YFP fluorescence, 10 uM ach (acetylcholine 10 uM): −10.11% | percent quench of YFP fluorescence, 100 uM ach (acetylcholine 100 uM): −10.05% | percent quench of YFP fluorescence, 1 mM ach (acetylcholine 1 mM): 32.11% | percent quench of YFP fluorescence, 3 mM ach (acetylcholine 3 mM): 57.37%
